IC50 of cytotoxicity (inhibition of protein synthesis, 3H-leucine incorporation) data for one substance are collected here from patent US20150368353A1.

For this assay, the target named is podoplanin on human brain tumor cells (glioblastoma and medulloblastoma cells and xenografts) (human) (UniProt Q86YL7). Briefly: cell-based or functional assay.

The substance dsNZ-1-PE38KDEL immunotoxin (scFv) registered an IC50 of cytotoxicity (inhibition of protein synthesis, 3H-leucine incorporation) of 0.5 to 6.9 ng/mL.
